These results are taken from PMC7948471, “RSU-1 interaction with prohibitin-2 links cell–extracellular matrix detachment to downregulation of ERK signaling” (The Journal of Biological Chemistry, 2020).

The target in the assay is T1, GST-tagged RSU1 (full length) (human, UniProt Q15404 1-277).
T1 construct: Ras suppressor 1 (RSU1), human; the ORF inserted into pGEX-5x-1; In solution in the MBP-PHB2 pull-down; as bait in the pull-down of venus-PHB2; also called GST-RSU1; source: E. coli, purified (glutathione-Sepharose 4B)
T1 sequence (looked up): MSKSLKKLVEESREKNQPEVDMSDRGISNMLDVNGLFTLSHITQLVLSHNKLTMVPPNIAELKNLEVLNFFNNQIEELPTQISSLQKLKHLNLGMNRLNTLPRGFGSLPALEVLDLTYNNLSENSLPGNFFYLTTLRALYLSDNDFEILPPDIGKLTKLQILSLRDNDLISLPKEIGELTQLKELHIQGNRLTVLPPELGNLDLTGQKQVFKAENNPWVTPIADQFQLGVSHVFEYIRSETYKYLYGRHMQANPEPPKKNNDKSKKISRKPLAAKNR
As to the kind of experiment: pull-down; GST-RSU1 (10 μg/ml) with amylose beads holding MBP-tagged full-length or deletion forms of PHB2 or MBP; 1% Triton X-100, 10 mM Tris, 100 mM NaH2PO4, pH 8.0; 4 °C, 3 h; Western blot with anti-RSU1. Conditions: both partners purified. On the technique in general: In western blotting, separated proteins are transferred to a membrane and probed.

B1: MBP-tagged PHB2 mutant in which amino acids 150 to 206 are deleted (Δ150–206) (natural protein, human, UniProt Q99623 1-299, looked up)
chain: MAQNLKDLAGRLPAGPRGMGTALKLLLGAGAVAYGVRESVFTVEGGHRAIFFNRIGGVQQDTILAEGLHFRIPWFQYPIIYDIRARPRKISSPTGSKDLQMVNISLRVLSRPNAQELPSMYQRLGLDYEERVLPSIVNEVLKSVVAKFNAQRAQFLVEKAKQEQRQKIVQAEGEAEAAKMLGEALSKNPGYIKLRKIRAAQNISKTIATSQNRIYLTADNLVLNLQDESFTRGSDSLIKGKK
notes: source: E. coli, purified (amylose-agarose beads)
B1: the binding result was “binds”.

B2: MBP-tagged PHB2 middle region (amino acids 150–206) (domain or fragment, human, UniProt Q99623 150-206, looked up)
chain: ASQLITQRAQVSLLIRRELTERAKDFSLILDDVAITELSFSREYTAAVEAKQVAQQE
notes: as for B1
For the molecule B2, the binding result is listed as “binds”.
